Assay results as given in the supplement of paper PMC12667976.

B1: library; numbered along this chain (parent)
chain: MATDAALRRLLRLHRTEIAVAVDSAFPLLHALADHDVVPEDKFQETLHLKEKEGCPQAFHALLSWLLTQDSTAILDFWRVLFKDYNLERYGRLQPILDSFPKDVDLSQPRKGRKPPAVPKALVPPPRLPTKRKASEEARAAAPAALTPRGTASPGSQLKAKPPKKPESSAEQQRLPLGNGIQTMSASVQRAVAMSSGDVPGARGAVEGILIQQVFESGGSKKCIQVGGEFYTPSKFEDSGSGKNKARSSSGPKPLVRAKGAQGAAPGGGEARLGQQGSVPAPLALPSDPQLHQKNEDECAVCRDGGELICCDGCPRAFHLACLSPPLREIPSGTWRCSSCLQATVQEVQPRAEEPRPQEPPVETPLPPGLRSAGEEVRGPPGEPLAGMDTTLVYKHLPAPPSAAPLPGLDSSALHPLLCVGPEGQQNLAPGARCGVCGDGTDVLRCTHCAAAFHWRCHFPAGTSRPGTGLRCRSCSGDVTPAPVEGVLAPSPARLAPGPAKDDTASHEPALHRDDLESLLSEHTFDGILQWAIQSMARPAAPFPS

Variants of: B1
Experiment: AIRE transcriptional activation functional score (insulin promoter-GFP; nonsense median 0, synonymous median 1) (normalised score); higher = higher AIRE activity (more reporter activation)
Settings: with insulin promoter-GFP reporter in HEK293
Experimental: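 Deep mutational scan of full-length human AIRE (codon-optimized cDNA, DT-POPCode NNN libraries over three regions) integrated at a Bxb1 landing pad in HEK293 cells carrying an insulin core promoter-GFP reporter at a Flp-In site. Cells were sorted for the top 10% GFP about 14 days after transfection. Variant frequency log-ratios (select vs non-select, TileSeq) were rescaled so that the nonsense median is 0 and the synonymous median is 1, then averaged over biological replicates.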

AIRE transcriptional activation functional score, by site and new letter:
N295: G 0.969, Y 1.08, A 0.906, I 0.856, M -0.37, C 1.01, D 0.921, T 1.14, R 0.795, P 1.05, S 0.92, H 0.879, L 1.17, W 0.869, Q 0.995, V 1.09, K 1.03, E 1.27, F 0.892
V301: F 1.29, T 0.963, Y 1.14, H 1.56, L 1.01, C 1.08, P 0.662, W 2, D 0.644, Q 1.08, R 1.34, E 1.05, N 0.743, M 0.84, G 1.08, K 1.09, S 1, I 0.84, A 1.01
E298: N 1.56, Y 0.785, Q 1.15, C -0.0529, K 1.07, M 0.204, P 0.696, V 0.91, T 0.228, W 1.13, R 0.634, G 1.13, S 0.818, L 0.839, I 1.03, H -2.02, D 0.987, F 0.727, A 0.0161
G305: C 1.06, D 1.1, E 0.782, F 0.497, A 0.453
R303: D 0.544, K 1.13, S 0.997, N 1.04, Y 0.774, W 1.02, A 0.349, G 1.34, H 1.12, F 1.47, V 1.16, L 1.12, I 1.32, P 1.09, Q 1.23, T 1.36, C 1.23, M 1.28, E 0.933
D288: F 1.5, N 0.786, M 1.31, K 0.535, A 1.19, W 1.59, Q 0.949, C 1.26, S 1.24, I 1.38, R 1.08, G 1.14, T 0.903, L 1.19, Y 1.23, E 0.565, P 1.15, H 0.855, V 1.14
A300: D 1.26, T 0.981, P 1.05, E 0.84, V 1.09, G 0.768, L 0.917, H 0.907, K 1.08, N 0.883, Y 0.856, W 1.22, Q 0.413, S 0.968, R 1.14, C 1.39, F 1.57, I 1.11
L291: W 0.706, G 1.06, C 1.01, Q 0.902, Y 1.69, F 1.15, N 0.0689, E 0.759, H 0.333, K 0.675, T 0.708, S 1.1, D 0.351, M 1.29, V 1.03, A 0.566, P 1.26, I 0.864, R 0.656
P289: H 1.22, V 1.09, E 0.531, Q 0.942, S 1.3, C 1.08, F 0.919, T 1.37, N 0.167, W 1.43, G 1.14, L 0.891, M 1.35, R 1.19, A 0.95, D -0.468, K 1.39
S287: Y 1.17, L 1.38, T 1.44, V 0.972, N 1.13, H 0.964, Q 1.24, W 1.12, K 0.385, M 1.29, P 0.464, R 1.04, I 1.07
E296: G 1.03, W 1.44, M 1.14, V 0.556, T 0.948, P 0.799, Y 0.486, R 0.658, I 0.711, H 1.76, S 0.991, C 0.394, A 0.699, N 1.28, K 0.642, Q 1.06, F 1.09, D 0.711, L 0.781
D297: L 0.697, N 0.25, H 0.894, Y 0.771, E 0.884, F 0.8, A 0.963, T 0.153, M 0.682, Q 1.32, V 0.909, K 1.49, C 0.929, S 0.838, R 0.34, P 1.29, G 0.852, I 0.487, W 0.671
D304: H 1.13, S 1.42, Y 0.808, F 0.0957, L 0.299, T 1.15, E 0.883, A 0.858, N 0.503, M 1.31, R 0.879, C 1.29, V 0.99, G 0.56, I 0.384, P 0.387, W 1.21, K 1.11
Q293: R 0.982, A 0.738, E 1.33, C 0.906, G 1, M 0.829, N 0.746, T -0.386, S 0.559, K 1.16, V 0.932, D 0.479, P 0.602, W 1.35, Y 0.958, F 1.1, L 1.08, H 1.18, I 0.523
K294: L 0.857, M 0.969, H 0.554, V 0.546, W -0.487, R 1.17, P 1.21, C 1, Y 0.634, F 0.447, G 0.728, N 0.937, Q 1.43, T 0.822, S 0.706, A 0.459, E 0.357, I 0.609
Q290: W 1.1, F 1.21, K 0.932, V 1.04, P 0.267, R 1.2, I 0.465, E 0.67, A 0.939, S 0.97, T 0.55, H 0.981, N 1.19, L 0.646, Y 1.48, G 1.02, M 1.27, C 0.819
C299: Q 0.508, E 0.32, A 0.615, D 0.505, N 0.262, M 0.737, G 0.55, F 0.664, S 0.703, K 0.668, V 0.501, H 0.488, L 0.726, R 0.523, W 0.647, I 0.55, P 0.634, Y 0.416, T 0.711
H292: Y 0.957, E -0.172, G 1.12, A 0.816, W 1.03, P 0.865, V 0.936, D 0.892, M 1.7, R 0.856, S 0.599, Q 0.508, F 0.915, L 0.55, N 1.03, K 0.992, C 0.815, T 1.13, I 0.603
C302: T 0.263, G 0.54, Y 0.467, F 0.63, E 0.654, A 0.669, I 0.572, D 0.537, Q 0.705, R 0.411, H 0.701, P 0.251, W 0.72, L 0.555, V 0.651, S 0.665, K 0.3, N 0.531
